The values that follow come from patent CN101151278A (GENENTECH INC, dated 2008).

Substitutions are numbered along the chain they refer to. Numbers in names are those of the source.

The target of assay [1] is T1, CD20 on WIL2-S cells (human, UniProt P11836 1-297).
T1 construct: whole, on cells; also called CD20抗原; 人CD20
T1 sequence (looked up): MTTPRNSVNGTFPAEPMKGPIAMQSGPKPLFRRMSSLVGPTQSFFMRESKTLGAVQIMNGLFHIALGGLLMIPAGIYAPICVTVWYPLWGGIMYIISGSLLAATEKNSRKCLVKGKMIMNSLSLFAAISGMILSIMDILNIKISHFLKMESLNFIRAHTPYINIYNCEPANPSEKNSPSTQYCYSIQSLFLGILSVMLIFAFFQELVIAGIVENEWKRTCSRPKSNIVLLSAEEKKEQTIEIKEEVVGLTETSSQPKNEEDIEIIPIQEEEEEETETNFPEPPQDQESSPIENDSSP
The experiment in a line: competitive Scatchard on WIL2-S cells, apparent Kd; competitor of 125I-2H7.v138.

The target in assay [2] is T1, CD20 on WIL2-S cells. The experiment in a line: competitive Scatchard on WIL2-S cells, apparent Kd; competitor of 125I-2H7.v511.
Assay [3] concerns the target T2, 人FcRn (human, UniProt P55899 24-297; P61769 21-119, limits assumed).
T2 construct: immobilised on a CM5 chip (BIAcore) or biotinylated and captured on NeutrAvidin (ELISA); also called huFcRn; human FcRn
The experiment in a line: ELISA, biotinylated human FcRn on NeutrAvidin plate, pH 6.0. A general note: An ELISA detects its analyte on a solid surface through an enzyme-linked reagent.

For assay [4], the target named is T2, 人FcRn. Kind of assay: ELISA, biotinylated human FcRn on NeutrAvidin plate, pH 7.4.

T2 sequence (P55899 24-297 limits assumed, chain 1 of 2): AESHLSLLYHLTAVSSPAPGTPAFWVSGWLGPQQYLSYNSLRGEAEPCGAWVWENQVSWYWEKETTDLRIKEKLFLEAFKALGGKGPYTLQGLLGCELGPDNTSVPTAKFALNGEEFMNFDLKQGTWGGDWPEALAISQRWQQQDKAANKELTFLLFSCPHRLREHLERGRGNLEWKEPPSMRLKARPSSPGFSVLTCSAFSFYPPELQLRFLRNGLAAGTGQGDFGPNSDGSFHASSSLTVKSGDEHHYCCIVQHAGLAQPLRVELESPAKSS
T2 sequence (P61769 21-119 limits assumed, chain 2 of 2): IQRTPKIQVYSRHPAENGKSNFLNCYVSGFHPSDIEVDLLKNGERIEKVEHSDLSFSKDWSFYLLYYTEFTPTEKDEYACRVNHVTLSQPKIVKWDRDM

B1: hu2H7.v511 (antibody, human IgG1, kappa, V domains shown)
VH: EVQLVESGGGLVQPGGSLRLSCAASGYTFTSYNMHWVRQAPGKGLEWVGAIYPGNGATSYNQKFKGRFTISVDKSKNTLYLQMNSLRAEDTAVYYCARVVYYSYRYWYFDVWGQGTLVTVSS
VL: DIQMTQSPSSLSASVGDRVTITCRASSSVSYLHWYQQKPGKAPKPLIYAPSNLASGVPSRFSGSGSGTDFTLTISSLQPEDFATYYCQQWAFNPPTFGQGTKVEIKR
notes: full-length IgG1
In the case of B1, the Kd with CD20 on WIL2-S cells [1] was 0.11 nM; with CD20 on WIL2-S cells [2], 0.45 nM.

B2: 2H7.v477 (antibody, human IgG1, kappa)
heavy: EVQLVESGGGLVQPGGSLRLSCAASGYTFTSYNMHWVRQAPGKGLEWVGAIYPGNGATSYNQKFKGRFTISVDKSKNTLYLQMNSLRAEDTAVYYCARVVYYSASYWYFDVWGQGTLVTVSSASTKGPSVFPLAPSSKSTSGGTAALGCLVKDYFPEPVTVSWNSGALTSGVHTFPAVLQSSGLYSLSSVVTVPSSSLGTQTYICNVNHKPSNTKVDKKVEPKSCDKTHTCPPCPAPELLGGPSVFLFPPKPKDTLMISRTPEVTCVVVDVSHEDPEVKFNWYVDGVEVHNAKTKPREEQYNATYRVVSVLTVLHQDWLNGKEYKCKVSNAALPAPIAATISKAKGQPREPQVYTLPPSREEMTKNQVSLTCLVKGFYPSDIAVEWESNGQPENNYKTTPPVLDSDGSFFLYSKLTVDKSRWQQGNVFSCSVMHEALHWHYTQKSLSLSPGK
light: DIQMTQSPSSLSASVGDRVTITCRASSSVSYLHWYQQKPGKAPKPLIYAPSNLASGVPSRFSGSGSGTDFTLTISSLQPEDFATYYCQQWAFNPPTFGQGTKVEIKRTVAAPSVFIFPPSDEQLKSGTASVVCLLNNFYPREAKVQWKVDNALQSGNSQESVTEQDSKDSTYSLSSTLTLSKADYEKHKVYACEVTHQGLSSPVTKSFNRGEC
notes: IgG1; 2H7.v138 with N434W
As to B2, the binding result with 人FcRn [3] is listed as “binds”.

B3: 2H7.v364 (antibody, human IgG1, kappa, name in EU numbering)
heavy: B2 heavy with W439A
light: B2 light
notes: IgG1; 2H7.v138 background with the N434 change
For B3, the binding result in the assay with 人FcRn [4] is listed as “binds”.

B4: 2H7.v138 (antibody, human IgG1, kappa)
heavy: B2 heavy with W439N
light: B2 light
notes: IgG1
Take B4: the binding result in the assay with 人FcRn [4] is “binds”.

B5: 2H7.v479 (antibody, human IgG1, kappa, name in EU numbering)
heavy: B2 heavy with W439Y
light: B2 light
notes: as for B3
With B5, in the assay with 人FcRn [4], the binding result is on record as “binds”.

B6: 2H7.v478 (antibody, human IgG1, kappa, name in EU numbering)
heavy: B2 heavy with W439F
light: B2 light
notes: as for B3
As for B6, the binding result in the assay with 人FcRn [3] is on record as “binds”.
